Tested on: growth of yeast strains under 51 stress conditions
Assay: Growth assays in 51 stress conditions (Fig. 1E-F, S2D, S5B)
Assay type: cell-based, Saccharomyces cerevisiae
Parameters: key to Growth (Fig. S2D) / growth of ABP1 SH3-swapped strains in stress condition: log2 colony size, average of median per strain (growth score)
Conditions: ABP1 SH3-swapped strains
Method: All WT, SH3-deleted, KO (except for CDC25 which is the only essential SH3-containing gene in yeast), ABP1 SH3-swapped, and SLA1 SH3-shuffled strains were grown on omnitrays in 1536 formats and robotically manipulated with a pin tool (the DHFR F[1,2] bait strains were used except for the KO strains). Each strain was randomly positioned in 6 replicates per plate and two plates per condition were performed, for 12 replicates per strain in total. A border of two rows and two columns of WT strains (BY4741) around the plate was used to remove border effects. Strains were grown on YPD media for two days at 30 °C. They were then replicated on 51 different media that are described in the Supplementary Table 3 and were incubated at 37 °C in a spImager custom platform with images acquired every two hours for four days. The colony sizes from plate pictures were also measured with the R package “Gitter” and the output was manually inspected. Positions with an abnormality in colony circularity were removed. The colony sizes after 74 h of incubation at 37 °C were log2 transformed and used for the analyses. First, the differences between the two plate replicates were corrected to remove plate effects. The median colony size was calculated for each strain per plate. Strains with a difference in their median colony size of more than two between the two plate replicates were removed. Finally, the average of the median colony size was calculated for each strain per condition (growth score).

B1: CYK3 (protein, UniProt Q07533 1-885, looked up)
Cytokinesis protein 3: MATNLTSLKPPFKVKARYGWSGQTKGDLGFLEGDIMEVTRIAGSWFYGKLLRNKKCSGYFPHNFVILLEERLNSSTENGRQPSKIVESFEKSNKVVIPPVPSRYSDERPRPKKKLSSSMPNSPKKPVDSLTKARKAKSKEMVNEKNIYNTQSSRHHNNSAPNLPLASHSKPQVRNFEESMNNPLPPLPPLPDLDNMRKTDKRAPKKSYSANDLHMARSSREYNYYKDNQKFYDGFIPEKRYSLEEDSISSGLFSNSQYLNDSACSSENSFALMSDFSATSAGSFARHKYAQSFSDSLQRSQNANGCSTKINDSQEFGDSNASSRNGKMGDILRKIIIPKRNTNIYSSSVSSPKSPKAYPKLPDIQNLNLSATPDEARDWIAVKCHLNRARTLTKYDKHPRYMRALEENRDLILHPQDSIYNGLNTNEVKGNTKPGLVDVELAELNIEYIDKMTWKRCIRDGTMTLDSWAQTTFSARYSTVLEKLRGIYIFCTEMFALTDDNGTSDFSAEPQNLEKILYRKHCTPYELTWLFKKLANSLGITCEIVIGFLKTPSAINWEFKYNHCWLRILVNKEWRFIDVILGNVTNPIHEFVNNRKIKKAENSYFLMAPLEMIYTHIPPREFEQHIVPSIDQLSALYLPLVFPSFFKNELKLYKFSTALSFLEDSEIYECSLEIPNDVEVFASVVIPTDNEEASSAYRNMELALTQIKKQKAESGRRIALIKAVLPPNVNKGSLYIHSGVRGTQTSIANIHPLSMMVPLTHKGSNMKYEFVIKIPSESIQKIELYIVEPQSRYLFVGNEYSFEVIQSPSDGIVYSSDEGPNQNRKQPMAIKSPSGRVHELVKSDPHFPYGTWKGSIKIKEPGVWSALVIADSGIGWSVFAEWLCV
Growth (Fig. S2D) (Bathophenanthroline.0.1uM): 10.8556 | Growth (Fig. S2D) (Bathophenanthroline.10uM): 10.6576 | Growth (Fig. S2D) (Bathophenanthroline.1uM): 10.8513 | Growth (Fig. S2D) (CaCl2.100mM): 10.8897 | Growth (Fig. S2D) (CaCl2.250mM): 10.7885 | Growth (Fig. S2D) (CaCl2.500mM): 10.3059 | Growth (Fig. S2D) (Caffein.10mM): 9.982 | Growth (Fig. S2D) (Caffein.2mM): 10.9591 | Growth (Fig. S2D) (CdCl2.100uM): 9.489 | Growth (Fig. S2D) (CdCl2.10uM): 10.8859 | Growth (Fig. S2D) (CdCl2.50uM): 9.907 | Growth (Fig. S2D) (CuSO4.1mM): 10.4416 | Growth (Fig. S2D) (CuSO4.5mM): 8.067 | Growth (Fig. S2D) (Cycloheximide.0.05.uM): 11.0397 | Growth (Fig. S2D) (Cycloheximide.0.2.uM): 10.6845 | Growth (Fig. S2D) (Cycloheximide.0.5.uM): 10.0538 | Growth (Fig. S2D) (DMSO.2.): 11.074 | Growth (Fig. S2D) (DMSO.6.): 9.997 | Growth (Fig. S2D) (DMSO.8.): 9.341 | Growth (Fig. S2D) (Ethanol.2.): 10.829 | Growth (Fig. S2D) (Ethanol.6.): 10.3434 | Growth (Fig. S2D) (Ethanol.8.): 10.1675 | Growth (Fig. S2D) (Galactose.2.): 10.8951 | Growth (Fig. S2D) (Glycerol.2.): 9.685 | Growth (Fig. S2D) (Hydroxyurea.25mM): 10.7817 | Growth (Fig. S2D) (Hygromycin.190uM): 10.9791 | Growth (Fig. S2D) (Hygromycin.19uM): 10.9621 | Growth (Fig. S2D) (Hygromycin.95uM): 11.0521 | Growth (Fig. S2D) (MMS.0.004.): 10.9601 | Growth (Fig. S2D) (MMS.0.02.): 10.7185 | Growth (Fig. S2D) (MMS.0.04.): 9.916 | Growth (Fig. S2D) (Menadione.100uM): 10.6134 | Growth (Fig. S2D) (Menadione.200uM): 10.436 | Growth (Fig. S2D) (Menadione.50uM): 10.8202 | Growth (Fig. S2D) (NaCl.0.25M): 10.7906 | Growth (Fig. S2D) (NaCl.1M): 9.617 | Growth (Fig. S2D) (Nitroquinoline.10uM): 10.7078 | Growth (Fig. S2D) (Nitroquinoline.50uM): 10.6701 | Growth (Fig. S2D) (Nystatin.0.01uM): 11.0601 | Growth (Fig. S2D) (Nystatin.0.1uM): 11.0266 | Growth (Fig. S2D) (Raffinose.2.): 11.0502 | Growth (Fig. S2D) (Rapamycin.10nM): 9.888 | Growth (Fig. S2D) (Rapamycin.50nM): 9.494 | Growth (Fig. S2D) (SC.pH3): 10.4532 | Growth (Fig. S2D) (SC.pH6): 11.0119 | Growth (Fig. S2D) (SDS.0.01.): 11.0053 | Growth (Fig. S2D) (SDS.0.02.): 10.9934 | Growth (Fig. S2D) (SDS.0.05.): 10.9282 | Growth (Fig. S2D) (Sorbitol.10mM): 11.048 | Growth (Fig. S2D) (Sorbitol.1mM): 11.0333 | Growth (Fig. S2D) (Sorbitol.5mM): 10.9546

B2: FUS1 (protein, UniProt P11710 1-512, looked up)
Nuclear fusion protein FUS1: MVATIMQTTTTVLTTVAAMSTTLASNYISSQASSSTSVTTVTTIATSIRSTPSNLLFSNVAAQPKSSSASTIGLSIGLPIGIFCFGLLILLCYFYLKRNSVSISNPPMSATIPREEEYCRRTNWFSRLFWQSKCEDQNSYSNRDIEKYNDTQWTSGDNMSSKIQYKISKPIIPQHILTPKKTVKNPYAWSGKNISLDPKVNEMEEEKVVDAFLYTKPPNIVHIESSMPSYNDLPSQKTVSSKKTALKTSEKWSYESPLSRWFLRGSTYFKDYGLSKTSLKTPTGAPQLKQMKMLSRISKGYFNESDIMPDERSPILEYNNTPLDANDSVNNLGNTTPDSQITSYRNNNIDLITARPHSVIYGTTAQQTLETNFNDHHDCNKSTEKHELIIPTPSKPLKKRKKRRQSKMYQHLQHLSRSKPLPLTPNSKYNGEASVQLGKTYTVIQDYEPRLTDEIRISLGEKVKILATHTDGWCLVEKCNTQKGSIHVSVDDKRYLNEDRGIVPGDCLQEYD
Growth (Fig. S2D) (Bathophenanthroline.0.1uM): 10.7893 | Growth (Fig. S2D) (Bathophenanthroline.10uM): 10.6947 | Growth (Fig. S2D) (Bathophenanthroline.1uM): 10.778 | Growth (Fig. S2D) (CaCl2.100mM): 10.8206 | Growth (Fig. S2D) (CaCl2.250mM): 10.8008 | Growth (Fig. S2D) (CaCl2.500mM): 10.319 | Growth (Fig. S2D) (Caffein.10mM): 10.109 | Growth (Fig. S2D) (Caffein.2mM): 11.0074 | Growth (Fig. S2D) (CdCl2.100uM): 9.381 | Growth (Fig. S2D) (CdCl2.10uM): 10.9194 | Growth (Fig. S2D) (CdCl2.50uM): 9.89 | Growth (Fig. S2D) (CuSO4.1mM): 10.4955 | Growth (Fig. S2D) (CuSO4.5mM): 8.084 | Growth (Fig. S2D) (Cycloheximide.0.05.uM): 11.1072 | Growth (Fig. S2D) (Cycloheximide.0.2.uM): 10.666 | Growth (Fig. S2D) (Cycloheximide.0.5.uM): 10.227 | Growth (Fig. S2D) (DMSO.2.): 11.051 | Growth (Fig. S2D) (DMSO.6.): 9.944 | Growth (Fig. S2D) (DMSO.8.): 9.179 | Growth (Fig. S2D) (Ethanol.2.): 10.7876 | Growth (Fig. S2D) (Ethanol.6.): 10.3273 | Growth (Fig. S2D) (Ethanol.8.): 10.1194 | Growth (Fig. S2D) (Galactose.2.): 10.7919 | Growth (Fig. S2D) (Glycerol.2.): 9.646 | Growth (Fig. S2D) (Hydroxyurea.25mM): 10.8071 | Growth (Fig. S2D) (Hygromycin.190uM): 11.0027 | Growth (Fig. S2D) (Hygromycin.19uM): 11.0061 | Growth (Fig. S2D) (Hygromycin.95uM): 11.0532 | Growth (Fig. S2D) (MMS.0.004.): 10.9625 | Growth (Fig. S2D) (MMS.0.02.): 10.7139 | Growth (Fig. S2D) (MMS.0.04.): 10.0597 | Growth (Fig. S2D) (Menadione.100uM): 10.6065 | Growth (Fig. S2D) (Menadione.200uM): 10.4266 | Growth (Fig. S2D) (Menadione.50uM): 10.8061 | Growth (Fig. S2D) (NaCl.0.25M): 10.6954 | Growth (Fig. S2D) (NaCl.1M): 9.8389 | Growth (Fig. S2D) (Nitroquinoline.10uM): 10.6415 | Growth (Fig. S2D) (Nitroquinoline.50uM): 10.6237 | Growth (Fig. S2D) (Nystatin.0.01uM): 11.0226 | Growth (Fig. S2D) (Nystatin.0.1uM): 11.0679 | Growth (Fig. S2D) (Raffinose.2.): 11.0059 | Growth (Fig. S2D) (Rapamycin.10nM): 9.886 | Growth (Fig. S2D) (Rapamycin.50nM): 9.356 | Growth (Fig. S2D) (SC.pH3): 10.3927 | Growth (Fig. S2D) (SC.pH6): 11.04 | Growth (Fig. S2D) (SDS.0.01.): 10.9614 | Growth (Fig. S2D) (SDS.0.02.): 10.9777 | Growth (Fig. S2D) (SDS.0.05.): 10.8408 | Growth (Fig. S2D) (Sorbitol.10mM): 10.9835 | Growth (Fig. S2D) (Sorbitol.1mM): 11.0132 | Growth (Fig. S2D) (Sorbitol.5mM): 10.8904
